The text below walks through data of article PMC4002474, “Secretoglobin 1A1 and 1A1A Differentially Regulate Neutrophil Reactive Oxygen Species Production, Phagocytosis and Extracellular Trap Formation” (PLoS ONE, 2014).

Data set [1] has as its target equine recombinant SCGB 1A1A (horse (E. caballus)). Kind of data set: non-reducing SDS-PAGE; purified recombinant protein run on SDS-PAGE in non-reducing conditions; dimers and monomers confirmed by Western blot under denaturing and mild reducing conditions.
Data set [2] deals with the molecule itself. The data set is described as above.

Turning to “equine recombinant SCGB 1A1A (natural protein)”, the stoichiometry N (commonly the number of molecules, sites or subunits per partner or assembly) in data set [1] is 2.

B1: equine recombinant SCGB 1A1 (secretoglobin family 1A member 1) (natural protein, horse (E. caballus), UniProt Q8MKG2 22-91, looked up)
chain: EICQSFADIIQGLFLGTPASFEAAVEPFKPDADMKAATTQLKTLVDFLPKNTKDSILKLMDKIAKSPLCA
notes: SCGB 1A1 of the horse (E. caballus), mature protein without the signal peptide, cDNA from equine lung, 100% identical to NCBI JQ906260.1; Cloned in pMAL-c5X, said to add no vector-derived residues after Factor Xa cleavage; Disulfide-dependent homodimer; also called club (Clara) cell secretory protein; CCSP; source: E. coli BL21 (NEB Express), purified (amylose column, Factor Xa, FPLC SuperDex …)
For B1, the “stoichiometry N” value in data set [2] came out at 2.
